Test results from PMC4070910, “Cathepsin S Signals via PAR2 and Generates a Novel Tethered Ligand Receptor Agonist” (PLoS ONE, 2014).

System: luciferase-PAR2M1 (leucine38 to alanine)
Experiment: Gaussia luciferase release, luciferase-PAR2M1
Assay type: cell-based, human
Conditions: cathepsin S 2 µM, 10 minutes, room temperature, triplicate
Source text: Gaussia luciferase cDNA was cloned, without its termination codon, into pcDNA3.1(−) as an Xho I-EcoR I fragment. Human PAR2 cDNA and its mutants, M1, M2 and M3, were generated using PCR primers designed to start after the signal sequence and end with a termination codon: […] and […] . The PCR amplified cDNAs were cloned into EcoR I and Hind III sites C-terminal to Gaussia luciferase cDNA. The resulting plasmids were called pGLPAR2, pGLPAR2M1, pGLPAR2M2 and pGLPAR2M3.
The QuickChange site-directed mutagenesis procedure (Agilent Technologies, Santa Clara, CA) was used to generate PAR2 N-terminal mutants. PAR2M1, with a single amino acid change, was created by substituting the leucine^38 codon, CTT, with alanine, GCT, using the primers: PAR2M1F, […], and PAR2M1R, […]. […]
The plasmid DNAs pGLPAR2, pGLPAR2M1, pGLPAR2M2 and pGLPAR2M3 (10 µg of each) were transfected into 2×10^6 HeLa cells as described above and plated into 10 cm dishes. […] Cells were scraped in order to eliminate the use of trypsin, which could activate PARs, and allowed for the luminescence assay to be performed in a small volume. […] Luminescence assays were performed in triplicate on 50 µl of the supernatants according to the instructions of the manufacturer (New England Biolabs, Ipswich, MA).

B1: cathepsin S: Recombinant human cathepsin S, cysteine protease, expressed in E.coli, refolded and activated (protein, UniProt P25774 115-331, looked up)
Cathepsin S: LPDSVDWREKGCVTEVKYQGSCGACWAFSAVGALEAQLKLKTGKLVSLSAQNLVDCSTEKYGNKGCNGGFMTTAFQYIIDNKGIDSDASYPYKAMDQKCQYDSKYRAATCSKYTELPYGREDVLKEAVANKGPVSVGVDARHPSFFLYRSGVYYEPSCTQNVNHGVLVVGYGDLNGKEYWLVKNSWGHNFGEEGYIRMARNKGNHCGIASFPSYPEI
receptor cleavage, luciferase luminescence (in words): cleaved the native and PAR2M1 receptors
